Residue numbers refer to the chain shown, from its start.
B1: D3 ADV1 dimer (VNAR, part only; not given: Linker between the domains, not shown: small tags and cut ends)
chain, part: ASVNQSPSSLSASVGDRVTITCVLTDTSYGLYSTSWFRKNPGTTDWERMSIGGRYSESVNKGAKSFTLTISSLQPEDSATYYCKAQSGMAISTGSGHGYNWYDGAGTKVEIKASVNQSPSSLSASVGDRVTITCVLTDTSYGLYSTSWFRKNPGTTDWERMSIGGRYSESVNKGAKSFTLTISSLQPEDSATYYCKAQSGMAISTGSGHGYNWYDGAGTKVEIKQASGAHHHHHHGAEFEQKLISEEDLG
B2: D3 ADV2 dimer (VNAR, part only; not given: Linker between the domains, not shown: small tags and cut ends)
chain, part: B1 chain, part with A1T, S2R, N4D, A113T, S114R, N116D

Target: human ROR1 extracellular domain-Fc fusion (human) (UniProt Q01973)
Assay: SPR, hROR1 ECD-Fc on chip

Binder	Kd [nM]	koff [s⁻¹]	kon [M⁻¹ s⁻¹]
B1	8.92	0.00567	636000
B2	26.2	0.016	609000

— patent publication US20210317204A1
